Source: PMC5401885, “Isoprenoid Pyrophosphate-Dependent Transcriptional Regulation of Carotenogenesis in Corynebacterium glutamicum” (Frontiers in Microbiology, 2017)

Target: T1, CrtR (His-tagged) (Corynebacterium glutamicum ATCC 13032) (UniProt Q8NSP1)
T1 sequence: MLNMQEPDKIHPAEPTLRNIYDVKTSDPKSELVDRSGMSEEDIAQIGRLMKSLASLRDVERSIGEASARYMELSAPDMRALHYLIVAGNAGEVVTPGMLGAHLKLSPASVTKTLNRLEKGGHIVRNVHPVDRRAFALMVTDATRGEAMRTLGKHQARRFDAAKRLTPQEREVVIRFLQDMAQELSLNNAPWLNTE
Test: EMSA
Conditions: 50 mM Tris-HCl pH 7.5, 10% glycerol, 50 mM KCl, 10 mM MgCl2, 0.5 mM EDTA, 20 uL, 90 ng DNA, 30 min at room temperature; 6% DNA retardation gel

Row | Compound | binding
1 | AAAAATAGGCCCTCATGGGATACTATAAATTTCTTGTAGGCACATTATTTTTATGGACCCAAATTCACACTTTCTGTACTTCATCAAAATAAAGCGCCATATACAACGATTGGGAATTTTTGCGAGATAACTGGCCGTGTGATACTCGA (double strand) [fragment I (motif 1 TTAA to GGCC)] | no binding
2 | AAAAATATTAACTCATGGGATACTATAAATTTCTTGTAGGCACATTATTTTTATGGACCCAAATTCACACTTTCTGTACTTCATCAAAATAAAGCGCCATATACAACGATTGGGAATTTTTGCGAGATAACTGGCCGTGTGATACTCGA (double strand) [fragment C] | binds
3 | AAAAATATTAACTCATGGGATACTATCCCGGGCTTGTAGGCACATTATTTTTATGGACCCAAATTCACACTTTCTGTACTTCATCAAAATAAAGCGCCATATACAACGATTGGGAATTTTTGCGAGATAACTGGCCGTGTGATACTCGA (double strand) [fragment H (motif 2 AAATTT to CCCGGG)] | binds
4 | AACTCATGGGATACTATAAATTTCTTGTAGGCACATTATTTTTATGGACCCAAATTCACACTTTCTGTACTTCATCAAAATAAAGCGCCATATACAACGATTGGGAATTTTTGCGAGATAACTGGCCGTGTGATACTCGA (double strand) [fragment B] | no binding
5 | ATTCAGCATAGTAATCACCTTTTTCTACAAAGTCAGATAAAGTTTATTTTTAAAAATATTAACTCATGGGATACTATAAATTTCTTGTAGGCACATTATTTTTATGGACCCAAATTCACACTTTCTGTACTTCATCAAAATAAAGCGCCATATACAACGATTGGGAATTTTTGCGAGATAACTGGCCGTGTGATACTCGA (double strand) [fragment A (full crtE-crtR intergenic region)] | binds
6 | CACCAATACTACGTTCCACATCGCGAAGACTGGCCAACGATTTCATTAGCCGCCCAATTTGCGCAATGTCTTCTTCCGACATGCCAGAACGATCAACTAATTCACTTTTGGGATCACTAGTTTTAACGTCATAAATATTACGAAGTGTAGGTTCTGCCGGATGGATTTTATCTGGTTCCTGCATATTCAGCATAGTAATCACCTTTTTCTACAAAGTCAGATAAAGTTTATTTTT (double strand) [fragment G] | no binding
7 | CACCAATACTACGTTCCACATCGCGAAGACTGGCCAACGATTTCATTAGCCGCCCAATTTGCGCAATGTCTTCTTCCGACATGCCAGAACGATCAACTAATTCACTTTTGGGATCACTAGTTTTAACGTCATAAATATTACGAAGTGTAGGTTCTGCCGGATGGATTTTATCTGGTTCCTGCATATTCAGCATAGTAATCACCTTTTTCTACAAAGTCAGATAAAGTTTATTTTTAAAAATATTAACTCATGGG (double strand) [fragment F] | binds
8 | CACCAATACTACGTTCCACATCGCGAAGACTGGCCAACGATTTCATTAGCCGCCCAATTTGCGCAATGTCTTCTTCCGACATGCCAGAACGATCAACTAATTCACTTTTGGGATCACTAGTTTTAACGTCATAAATATTACGAAGTGTAGGTTCTGCCGGATGGATTTTATCTGGTTCCTGCATATTCAGCATAGTAATCACCTTTTTCTACAAAGTCAGATAAAGTTTATTTTTAAAAATATTAACTCATGGGATACTATAAATTTCTTGTAGGC (double strand) [fragment E] | binds
9 | CATAAAAATAATGTGCCTACAAGAAATTTATAGTATCCCATGAGTTAATATTTTTAAAAATAAACTTTATCTGACTTTGTAGAAAAAGGTGATTACTATGCTGAATATGCAGGAACCAGATAAAATCCATCCGGCAGAACCTACACTTCGTAATATTTATGACGTTAAAACTAGTGATCCCAAAAGTGAATTAGTTGATCGTTCTGGCATGTCGGAAGAAGACATTGCGCAAATTGGGCGGCTAATGAAATCGTTGGCCAGTCTTCGCGATGTGGAACGTAGTATTGGTG (double strand) [fragment D] | binds
10 | GTTCGCTACGTCCGAGTGATCACCTACAAGGACGTCAACATCGAAGAATTAGATAAGCCTGACATCATCATGCCTGAG (double strand) [cg2228 upstream fragment] | no binding
11 | TCGAGTATCACACGGCCAGTTATCTCGCAAAAATTCCCAATCGTTGTATATGGCGCTTTATTTTGATGAAGTACAGAAAGTGTGAATTTGGGTCCATAAAAATAATGTGCCTACAAGCCCGGGATAGTATCCCATGAGGGCCTATTTTT (double strand) | no binding

Target: T2, CrtR (CrtRHis6, His-tagged CrtR) (Corynebacterium glutamicum, UniProt Q8NSP1)
T2 construct: gene Cgl0627; full length, 195 aa; N-terminal His-tag (pET16b, decahistidine) kept; expressed in E. coli BL21(DE3); Ni-NTA purified; cloning primers give N-terminus MLNMQE and C-terminus WLNTE
T2 sequence (Q8NSP1 1-195): T1 sequence
Test: EMSA, loss of CrtR binding to crtE-crtR intergenic DNA
Conditions: 30-fold molar excess CrtR over DNA; 15 min pre-incubation, room temperature; 50 mM Tris-HCl pH 7.5, 50 mM KCl, 10 mM MgCl2

Row | Compound | lowest effective concentration
12 | CC(C)=CCC/C(C)=C/CC/C(C)=C/CC/C(C)=C/COP(=O)(O)OP(=O)(O)O [GGPP] | 50 µM

Target: T2, CrtR (CrtRHis6, His-tagged CrtR)
Test: as above
Conditions: 30-fold molar excess CrtR over DNA; 15 min pre-incubation, room temperature; 50 mM Tris-HCl pH 7.5, 50 mM KCl, 10 mM MgCl2
Remark: another data set of the same source

Row | Compound | EMSA, loss of CrtR binding to crtE-crtR intergenic DNA
13 | CC(C)=CCOP(=O)(O)OP(=O)(O)O [DMAPP, dimethylallyl pyrophosphate] | FPP, GPP, IPP and DMAPP exerted similar effects on CrtR binding in vitro
14 | CC(C)=CCC/C(C)=C/CC/C(C)=C/COP(=O)(O)OP(=O)(O)O [FPP, farnesyl pyrophosphate] | farnesyl pyrophosphate (FPP) and GGPP perturbed binding of His-tagged CrtR to the intergenic region
15 | CC(C)=CCC/C(C)=C/COP(=O)(O)OP(=O)(O)O [GPP, geranyl pyrophosphate] | FPP, GPP, IPP and DMAPP exerted similar effects on CrtR binding in vitro
16 | C=C(C)CCOP(=O)(O)OP(=O)(O)O [IPP, isopentenyl pyrophosphate] | FPP, GPP, IPP and DMAPP exerted similar effects on CrtR binding in vitro
